Results published in the supplement of paper PMC7877785.
± gives the uncertainty stated by the source.

Assay: self-splicing fitness, log relative to wild type (ln ratio); higher = more splicing; Tetrahymena group I intron in knt gene, E. coli kanamycin selection, DiMSum; sequences stand for … in CUCUCU…GGAGGGAAAAGUUAUCAGGCAUGCACCUGGUAGCUAGUCUUUAAACCAAUAGAUUGCAUCGGUUUAAAAGGCAAGACCGUCAAAUUGCGGGAAAGGGGUCAACAGCCGUUCAGUACCAAGUCUCAGGGGAAACUUUGAGAUGGCCUUGCAAAGGGUAUGGUAAUAAGCUGACGGACAUGGUCCUAACCACGCAGCCAAGUCCUAAGUCAACAGAUCUUCUGUUGAUAUGGAUGCAGUUCACAGACUAAAUGUCGGUCGGGGAAGAUGUAUUCUUCUCAUAAGAUAUAGUCGGACCUCUCCUUAAUGGGAGCUAGCGGAUGAAGUGAUGCAACACUGGAGCCGCUGGGAACUAAUUUGUAUGCGAAAGUAUAUUGAUUAGUUUUGGAGUACUCGUGGUCG
Method in brief: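 DiMSum derived fitness as the error-weighted combination of fold changes across replicates, kanamycin versus no kanamycin, normalised to wild type. E. coli BL21(DE3) held the library, which randomised all eight P1ex-region intron nucleotides within the knt kanamycin-resistance gene on pET-22b(+). Six replicate transformations grew overnight at 37°C or 30°C on LB agar with or without 25 μg/mL kanamycin, also containing 100 μg/mL carbenicillin, 50 μM IPTG and 0.2% rhamnose, and pooled colonies were amplicon-sequenced on an Illumina HiSeq 2500.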

Sequence	self-splicing fitness (ln) (30 °C)	self-splicing fitness (ln) (37 °C)
CCCGAGCAAUAUUACGGGUA	-3.44 ± 0.2	-3.43 ± 0.23
AGGCAGCAAUAUUACGUUAG	-3.85 ± 0.26	-2.14 ± 0.16
GUACAGCAAUAUUACGUAAC	-2.18 ± 0.14	-1.11 ± 0.12
AUACAGCAAUAUUACGAAUA	-2.51 ± 0.12	-0.987 ± 0.11
UAAUAGCAAUAUUACGAACU	-1.37 ± 0.14	-1.62 ± 0.17
UCGCAGCAAUAUUACGGACU	-2.14 ± 0.16	-0.513 ± 0.16
CCAGAGCAAUAUUACGAAGG	-3.47 ± 0.19	-1.92 ± 0.22
AGAUAGCAAUAUUACGAACA	-1.15 ± 0.11	-0.00294 ± 0.12
UCCAAGCAAUAUUACGUUCU	-2.62 ± 0.1	-3.9 ± 0.29
GACUAGCAAUAUUACGCAUC	-3.16 ± 0.17	-2.95 ± 0.22
AUCAAGCAAUAUUACGCGUU	-2.66 ± 0.089	-0.858 ± 0.095
UAAUAGCAAUAUUACGCACG	-1.1 ± 0.16	0.193 ± 0.24
GGUUAGCAAUAUUACGGGGC		-2.66 ± 0.4
CGGAAGCAAUAUUACGUUGG	-1.89 ± 0.071	-0.688 ± 0.077
AUCAAGCAAUAUUACGGGAG	-1.16 ± 0.097	-0.571 ± 0.099
AUGGAGCAAUAUUACGUGGU	-3.08 ± 0.17	-1.35 ± 0.23
CAGAAGCAAUAUUACGGUUA	-2.25 ± 0.13	-1.72 ± 0.12
CGUUAGCAAUAUUACGUCUU	-4.03 ± 0.26	-1.29 ± 0.099
GUGCAGCAAUAUUACGGCAU	-2.93 ± 0.2	-1.64 ± 0.18
GGCUAGCAAUAUUACGCACC	-1.61 ± 0.24	-1.78 ± 0.26

Sequence	self-splicing fitness (ln) (30 °C)	self-splicing fitness (ln) (37 °C)
CGGAAGCAAUAUUACGGACA	0.389 ± 0.13	-0.329 ± 0.15
GCGGAGCAAUAUUACGGAUG	-3.28 ± 0.17	-1.67 ± 0.22
CUCAAGCAAUAUUACGAGCC		-2.67 ± 0.3
AGGAAGCAAUAUUACGCAGA	-3.5 ± 0.31	-1.33 ± 0.14
CAGAAGCAAUAUUACGGGGG	-3.09 ± 0.16	-2.75 ± 0.21
CAGGAGCAAUAUUACGUCUC		-3.07 ± 0.3
UAAUAGCAAUAUUACGAAAU		-2.07 ± 0.36
UCUAAGCAAUAUUACGGCAC	-3.19 ± 0.44	-2.85 ± 0.32
GAUGAGCAAUAUUACGGGGC	-3.24 ± 0.33	-2.28 ± 0.23
GGCCAGCAAUAUUACGAGUU	-0.659 ± 0.1	-1 ± 0.11
UCCGAGCAAUAUUACGCGAU		-2.3 ± 0.35
UGUAAGCAAUAUUACGCGCC	-1.18 ± 0.1	-0.53 ± 0.13
GUCUAGCAAUAUUACGCGUU	-0.17 ± 0.063	-0.000183 ± 0.069
UCUCAGCAAUAUUACGUCUG	-4.98 ± 0.45	-2.82 ± 0.25
GCCUAGCAAUAUUACGAGAA		-1.26 ± 0.4
CAGUAGCAAUAUUACGGCUU	-1.58 ± 0.16	-1.01 ± 0.14
UGAUAGCAAUAUUACGCCCC	-2.85 ± 0.43	-0.875 ± 0.38
CCUCAGCAAUAUUACGAGGU	-3.38 ± 0.21	-2.62 ± 0.19
CUAUAGCAAUAUUACGUGAA	-4.01 ± 0.19	-2.51 ± 0.21
CGGUAGCAAUAUUACGGUAA	-2.99 ± 0.29	-3.12 ± 0.3
